These results are taken from PMC4163509 (Molecular and cellular endocrinology, 2014).

The target of data set [1] is T1, Methoprene-tolerant (Met) protein, AaMet (Aedes aegypti, UniProt Q58FS0).
T1 sequence (Q58FS0 1-597): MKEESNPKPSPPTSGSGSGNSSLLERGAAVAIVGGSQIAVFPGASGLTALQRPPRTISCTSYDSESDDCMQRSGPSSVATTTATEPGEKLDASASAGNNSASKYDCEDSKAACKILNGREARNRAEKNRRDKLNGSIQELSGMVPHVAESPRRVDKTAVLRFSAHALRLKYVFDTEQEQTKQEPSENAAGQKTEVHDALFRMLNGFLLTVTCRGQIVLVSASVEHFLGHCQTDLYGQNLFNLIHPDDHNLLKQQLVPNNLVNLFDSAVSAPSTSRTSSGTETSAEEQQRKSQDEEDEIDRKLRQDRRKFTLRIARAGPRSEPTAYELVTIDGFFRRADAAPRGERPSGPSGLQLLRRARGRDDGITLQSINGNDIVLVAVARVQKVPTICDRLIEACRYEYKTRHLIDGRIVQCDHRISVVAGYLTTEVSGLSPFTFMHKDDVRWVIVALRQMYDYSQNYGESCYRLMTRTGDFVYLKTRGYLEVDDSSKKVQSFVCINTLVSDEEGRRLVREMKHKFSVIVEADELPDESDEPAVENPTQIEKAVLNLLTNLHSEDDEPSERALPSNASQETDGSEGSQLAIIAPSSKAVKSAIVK
The experiment in a line: [3H]-JH-III dextran-coated charcoal radioligand binding, Scatchard.

Data set [2] addresses bHLH-PAS domain of AaMet fused to the GAL4 DNA-binding domain (Aedes aegypti) (UniProt Q58FS0). Kind of data set: two-hybrid.
In another data set the target is T2, GST-AaMet (bHLH-PAS) (Aedes aegypti, UniProt Q58FS0 1-597).
T2 sequence: T1 sequence (Q58FS0 1-597)
Kind of data set: EMSA.

The molecule `COC(=O)/C=C(\C)CC/C=C(\C)CC[C@H]1OC1(C)C` [JH-III] came in with a Kd in data set [1] of 4.4 ± 1.9 nM. As to “bHLH-PAS domain of AaFISC fused to the activation domain of GAL4 (domain or fragment)”, the fold enhancement of two-hybrid reporter activation with JH-III in data set [2] was above 20 fold.

B1: AaET_JHRE1 (dsDNA)
DNA 1: CCATCCCACACGCGAAGACGATAAAACCA
DNA 2: TGGTTTTATCGTCTTCGCGTGTGGGATGG
Consider B1, for which the binding result in the data set with GST-AaMet (bHLH-PAS) is on record as “no binding”.
